{"source": "paper PMC10786891", "about": "“Massively parallel profiling of RNA-targeting CRISPR-Cas13d”", "data": [{"molecular_target": "T1, EsCas13d, nuclease-dead (Eubacterium siraeum, UniProt B0MS50, R295A;H300A;R849A;H854A)", "T1 sequence": "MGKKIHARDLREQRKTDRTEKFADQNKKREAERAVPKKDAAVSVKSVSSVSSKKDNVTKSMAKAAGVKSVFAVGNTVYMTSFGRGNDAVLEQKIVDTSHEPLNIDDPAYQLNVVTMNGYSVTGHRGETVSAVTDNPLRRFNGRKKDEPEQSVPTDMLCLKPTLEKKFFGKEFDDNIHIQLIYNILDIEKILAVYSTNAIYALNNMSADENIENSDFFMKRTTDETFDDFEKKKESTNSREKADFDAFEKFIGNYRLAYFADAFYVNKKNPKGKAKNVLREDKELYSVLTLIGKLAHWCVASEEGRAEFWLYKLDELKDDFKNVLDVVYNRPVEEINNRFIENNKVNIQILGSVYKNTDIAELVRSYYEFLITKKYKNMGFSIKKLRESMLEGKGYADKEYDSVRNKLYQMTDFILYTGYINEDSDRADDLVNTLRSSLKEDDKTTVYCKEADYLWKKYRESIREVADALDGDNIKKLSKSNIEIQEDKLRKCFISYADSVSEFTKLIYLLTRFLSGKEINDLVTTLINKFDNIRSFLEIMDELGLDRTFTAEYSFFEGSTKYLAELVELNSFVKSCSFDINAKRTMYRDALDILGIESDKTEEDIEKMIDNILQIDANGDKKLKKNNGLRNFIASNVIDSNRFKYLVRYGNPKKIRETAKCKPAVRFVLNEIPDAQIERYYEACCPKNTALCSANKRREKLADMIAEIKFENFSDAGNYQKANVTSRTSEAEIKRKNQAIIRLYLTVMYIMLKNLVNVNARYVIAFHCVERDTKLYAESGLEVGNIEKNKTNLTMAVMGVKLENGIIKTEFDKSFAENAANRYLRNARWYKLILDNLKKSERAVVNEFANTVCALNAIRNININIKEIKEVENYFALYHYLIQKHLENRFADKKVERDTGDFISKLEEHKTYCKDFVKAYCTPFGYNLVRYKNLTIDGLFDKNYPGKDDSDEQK", "test": "crRNA (strand 1, pre-loaded); Mg2+; 40 mM Tris-HCl pH 7.5, 150 mM NaCl, 6 mM MgCl2, 1 mM DTT, 0.1% Tween-20, 0.2 mg/ml BSA; 25 C; 10 min per concentration, then washed", "conditions": "tags: His6-TwinStrep-SUMO cleaved; N-terminal SNAP kept (SNAP-Surface 488); label: 3' end held by stalled T7 RNA polymerase", "units": {"Kd": "nM"}, "values": [{"binder": "target 1 C2U,U10C (mixed) RNA 1: CACCCGUGCAAAAAUGCAGGGGUCUAAAACUGAGCGGAUAACCUCUCUAUGG RNA 2: GGGAAUGGAUCCACAUCUACGAAUUCGUACCAUAGAGAGGUCAUCCGCUUACCGAGAUCGGAAGAGCACACGU", "Kd": "20.8 ± 1.6"}, {"binder": "target 1 insG 3' of 22,insU 3' of 20 (mixed) RNA 1: CACCCGUGCAAAAAUGCAGGGGUCUAAAACUGAGCGGAUAACCUCUCUAUGG RNA 2: GGGAAUGGAUCCACAUCUACGAAUUCGUACGCAUUAGAGAGGUUAUCCGCUCACCGAGAUCGGAAGAGCACACGU", "Kd": "38 ± 5"}, {"binder": "target 3 C1A,U8A (mixed) RNA 1: CACCCGUGCAAAAUUGCAGGGGUCUAAAACGACCUGAAUAUUUCAGAUCAAA RNA 2: GGGAAUGGAUCCACAUCUACGAAUUCGUUUUUGAUCUGAAAUAAUCAGGUAUGCAGAUCGGAAGAGCACACGU", "Kd": "68 ± 17.5"}, {"binder": "target 3 C1G,A12U (mixed) RNA 1: CACCCGUGCAAAAUUGCAGGGGUCUAAAACGACCUGAAUAUUUCAGAUCAAA RNA 2: GGGAAUGGAUCCACAUCUACGAAUUCGUUUUUGAUCUGAUAUAUUCAGGUGUGCAGAUCGGAAGAGCACACGU", "Kd": "63 ± 18"}, {"binder": "target 3 insC 3' of 9,insG 3' of 9 (mixed) RNA 1: CACCCGUGCAAAAUUGCAGGGGUCUAAAACGACCUGAAUAUUUCAGAUCAAA RNA 2: GGGAAUGGAUCCACAUCUACGAAUUCGUUUUUGAUCUGAAAUACGUUCAGGUCUGCAGAUCGGAAGAGCACACGU", "Kd": "118 ± 50"}, {"binder": "target 3 G4U,A5U (mixed) RNA 1: CACCCGUGCAAAAUUGCAGGGGUCUAAAACGACCUGAAUAUUUCAGAUCAAA RNA 2: GGGAAUGGAUCCACAUCUACGAAUUCGUUUUUGAUCUGAAAUAUUCUUGUCUGCAGAUCGGAAGAGCACACGU", "Kd": "25.2 ± 3.6"}, {"binder": "target 3 del5,del22 (mixed) RNA 1: CACCCGUGCAAAAUUGCAGGGGUCUAAAACGACCUGAAUAUUUCAGAUCAAA RNA 2: GGGAAUGGAUCCACAUCUACGAAUUCGUUUUGAUCUGAAAUAUUCGGUCUGCAGAUCGGAAGAGCACACGU", "Kd": "29.3 ± 2.3"}, {"binder": "target 3 insU 3' of 14,insC 3' of 3 (mixed) RNA 1: CACCCGUGCAAAAUUGCAGGGGUCUAAAACGACCUGAAUAUUUCAGAUCAAA RNA 2: GGGAAUGGAUCCACAUCUACGAAUUCGUUUUUGAUCUGUAAAUAUUCAGGCUCUGCAGAUCGGAAGAGCACACGU", "Kd": "71 ± 28"}, {"binder": "target 3 insG 3' of 9,insU 3' of 4 (mixed) RNA 1: CACCCGUGCAAAAUUGCAGGGGUCUAAAACGACCUGAAUAUUUCAGAUCAAA RNA 2: GGGAAUGGAUCCACAUCUACGAAUUCGUUUUUGAUCUGAAAUAGUUCAGUGUCUGCAGAUCGGAAGAGCACACGU", "Kd": "74.5 ± 19"}, {"binder": "target 3 C1G,A5G (mixed) RNA 1: CACCCGUGCAAAAUUGCAGGGGUCUAAAACGACCUGAAUAUUUCAGAUCAAA RNA 2: GGGAAUGGAUCCACAUCUACGAAUUCGUUUUUGAUCUGAAAUAUUCGGGUGUGCAGAUCGGAAGAGCACACGU", "Kd": "55 ± 22"}, {"binder": "target 3 insC 3' of 11,insA 3' of 7 (mixed) RNA 1: CACCCGUGCAAAAUUGCAGGGGUCUAAAACGACCUGAAUAUUUCAGAUCAAA RNA 2: GGGAAUGGAUCCACAUCUACGAAUUCGUUUUUGAUCUGAAACUAUUACAGGUCUGCAGAUCGGAAGAGCACACGU", "Kd": "65 ± 19"}, {"binder": "target 3 U2G,A9C (mixed) RNA 1: CACCCGUGCAAAAUUGCAGGGGUCUAAAACGACCUGAAUAUUUCAGAUCAAA RNA 2: GGGAAUGGAUCCACAUCUACGAAUUCGUUUUUGAUCUGAAAUCUUCAGGGCUGCAGAUCGGAAGAGCACACGU", "Kd": "106 ± 49.5"}, {"binder": "target 3 U8A (mixed) RNA 1: CACCCGUGCAAAAUUGCAGGGGUCUAAAACGACCUGAAUAUUUCAGAUCAAA RNA 2: GGGAAUGGAUCCACAUCUACGAAUUCGUUUUUGAUCUGAAAUAAUCAGGUCUGCAGAUCGGAAGAGCACACGU", "Kd": "58.5 ± 7.5"}, {"binder": "target 3 C1U,A5G (mixed) RNA 1: CACCCGUGCAAAAUUGCAGGGGUCUAAAACGACCUGAAUAUUUCAGAUCAAA RNA 2: GGGAAUGGAUCCACAUCUACGAAUUCGUUUUUGAUCUGAAAUAUUCGGGUUUGCAGAUCGGAAGAGCACACGU", "Kd": "20.6 ± 3.3"}, {"binder": "target 3 A5G (mixed) RNA 1: CACCCGUGCAAAAUUGCAGGGGUCUAAAACGACCUGAAUAUUUCAGAUCAAA RNA 2: GGGAAUGGAUCCACAUCUACGAAUUCGUUUUUGAUCUGAAAUAUUCGGGUCUGCAGAUCGGAAGAGCACACGU", "Kd": "20.9 ± 1.8"}, {"binder": "target 3 complement block 4-8 (mixed) RNA 1: CACCCGUGCAAAAUUGCAGGGGUCUAAAACGACCUGAAUAUUUCAGAUCAAA RNA 2: GGGAAUGGAUCCACAUCUACGAAUUCGUUUUUGAUCUGAAAUAAAGUCGUCUGCAGAUCGGAAGAGCACACGU", "Kd": "51.5 ± 5.5"}, {"binder": "target 3 insC 3' of 5,insA 3' of 3 (mixed) RNA 1: CACCCGUGCAAAAUUGCAGGGGUCUAAAACGACCUGAAUAUUUCAGAUCAAA RNA 2: GGGAAUGGAUCCACAUCUACGAAUUCGUUUUUGAUCUGAAAUAUUCACGGAUCUGCAGAUCGGAAGAGCACACGU", "Kd": "7.35 ± 0.5"}, {"binder": "target 3 C6A,U8C (mixed) RNA 1: CACCCGUGCAAAAUUGCAGGGGUCUAAAACGACCUGAAUAUUUCAGAUCAAA RNA 2: GGGAAUGGAUCCACAUCUACGAAUUCGUUUUUGAUCUGAAAUACUAAGGUCUGCAGAUCGGAAGAGCACACGU", "Kd": "34.9 ± 3.6"}, {"binder": "target 3 G3C,U7C (mixed) RNA 1: CACCCGUGCAAAAUUGCAGGGGUCUAAAACGACCUGAAUAUUUCAGAUCAAA RNA 2: GGGAAUGGAUCCACAUCUACGAAUUCGUUUUUGAUCUGAAAUAUCCAGCUCUGCAGAUCGGAAGAGCACACGU", "Kd": "64 ± 12"}, {"binder": "target 3 insC 3' of 7,insG 3' of 7 (mixed) RNA 1: CACCCGUGCAAAAUUGCAGGGGUCUAAAACGACCUGAAUAUUUCAGAUCAAA RNA 2: GGGAAUGGAUCCACAUCUACGAAUUCGUUUUUGAUCUGAAAUAUUCGCAGGUCUGCAGAUCGGAAGAGCACACGU", "Kd": "16.8 ± 1.45"}, {"binder": "target 3 insC 3' of 9,insA 3' of 8 (mixed) RNA 1: CACCCGUGCAAAAUUGCAGGGGUCUAAAACGACCUGAAUAUUUCAGAUCAAA RNA 2: GGGAAUGGAUCCACAUCUACGAAUUCGUUUUUGAUCUGAAAUACUAUCAGGUCUGCAGAUCGGAAGAGCACACGU", "Kd": "43.9 ± 7.35"}, {"binder": "target 3 insU 3' of 11,insU 3' of 5 (mixed) RNA 1: CACCCGUGCAAAAUUGCAGGGGUCUAAAACGACCUGAAUAUUUCAGAUCAAA RNA 2: GGGAAUGGAUCCACAUCUACGAAUUCGUUUUUGAUCUGAAAUUAUUCAUGGUCUGCAGAUCGGAAGAGCACACGU", "Kd": "64 ± 13"}, {"binder": "target 3 U8C,A11C (mixed) RNA 1: CACCCGUGCAAAAUUGCAGGGGUCUAAAACGACCUGAAUAUUUCAGAUCAAA RNA 2: GGGAAUGGAUCCACAUCUACGAAUUCGUUUUUGAUCUGAACUACUCAGGUCUGCAGAUCGGAAGAGCACACGU", "Kd": "57 ± 14"}, {"binder": "target 3 insA 3' of 22,insA 3' of 21 (mixed) RNA 1: CACCCGUGCAAAAUUGCAGGGGUCUAAAACGACCUGAAUAUUUCAGAUCAAA RNA 2: GGGAAUGGAUCCACAUCUACGAAUUCGUUUAUAUGAUCUGAAAUAUUCAGGUCUGCAGAUCGGAAGAGCACACGU", "Kd": "31.9 ± 4.5"}]}]}
